Targets include AHNAK1, Q09666; DLG4_1, P78352; FRMPD2_3, Q68DX3; GRID2IP_2, A4D2P6; GRIP2_4, Q9C0E4; GRIP2_5, Q9C0E4; HTRA1, Q92743; IL16_3, Q14005; Inadl_8, Q8NI35; MAGI1_1, Q96QZ7; NOS1, P29475; PDLIM1, O00151; PICK1, Q9NRD5; SNX27, Q96L92.
Assay in all cases: holdup assay
Common to all, as to parameters: key: below the threshold = too weak to quantify, mostly under pKd 3.1 to 4

The target in the next assay is T1, APBA1_1, Q02410.
T1 sequence (Q02410 651-752, limits assumed, looked up): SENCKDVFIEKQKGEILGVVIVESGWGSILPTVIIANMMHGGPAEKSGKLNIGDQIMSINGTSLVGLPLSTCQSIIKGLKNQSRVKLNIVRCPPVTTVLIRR

A further assay addresses T2, APBA1_2, Q02410.
T2 sequence (Q02410 742-832, limits assumed, looked up): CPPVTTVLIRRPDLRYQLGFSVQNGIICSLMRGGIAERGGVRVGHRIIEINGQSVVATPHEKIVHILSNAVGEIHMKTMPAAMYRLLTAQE

The next assay addresses T3, DLG3_1, Q92796.
T3 sequence (Q92796 125-227, limits assumed, looked up): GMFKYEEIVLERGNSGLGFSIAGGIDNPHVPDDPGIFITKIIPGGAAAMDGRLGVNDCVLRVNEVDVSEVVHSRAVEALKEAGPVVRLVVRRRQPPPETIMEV

Another assay deals with T4, DLG3_3, Q92796.
T4 sequence (Q92796 374-475, limits assumed, looked up): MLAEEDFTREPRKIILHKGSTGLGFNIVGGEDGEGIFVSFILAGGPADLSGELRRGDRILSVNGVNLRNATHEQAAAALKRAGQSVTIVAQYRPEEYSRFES

For a further assay, the target named is T5, GRIP1_3, Q9Y3R0.
T5 sequence (Q9Y3R0 247-346, limits assumed, looked up): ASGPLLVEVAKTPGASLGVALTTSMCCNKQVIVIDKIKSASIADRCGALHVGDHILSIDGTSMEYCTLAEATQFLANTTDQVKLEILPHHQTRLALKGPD

The target in another assay is T6, GRIP1_5, Q9Y3R0.
T6 sequence (Q9Y3R0 568-668, limits assumed, looked up): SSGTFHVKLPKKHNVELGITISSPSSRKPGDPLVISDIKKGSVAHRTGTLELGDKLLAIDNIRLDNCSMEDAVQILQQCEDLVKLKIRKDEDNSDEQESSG

In the next assay the target is T7, LNX2_2, Q8N448.
T7 sequence (Q8N448 334-432, limits assumed, looked up): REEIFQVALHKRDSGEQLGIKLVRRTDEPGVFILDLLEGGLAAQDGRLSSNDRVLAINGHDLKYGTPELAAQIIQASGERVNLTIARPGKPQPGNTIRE

The target of another assay is T8, MPP2, Q14168.
T8 sequence (Q14168 180-250, limits assumed, looked up): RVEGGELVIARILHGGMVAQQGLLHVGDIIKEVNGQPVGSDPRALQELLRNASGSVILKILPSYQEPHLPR

For another assay, the target named is T9, NHERF3_1, Q5T2W1.
T9 sequence (Q5T2W1 4-100, limits assumed, looked up): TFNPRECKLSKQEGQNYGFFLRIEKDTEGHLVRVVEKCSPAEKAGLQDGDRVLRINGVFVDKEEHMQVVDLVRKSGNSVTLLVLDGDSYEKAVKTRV

Another assay has as its target T10, RHPN1, Q8TCX5.
T10 sequence (Q8TCX5 508-602, limits assumed, looked up): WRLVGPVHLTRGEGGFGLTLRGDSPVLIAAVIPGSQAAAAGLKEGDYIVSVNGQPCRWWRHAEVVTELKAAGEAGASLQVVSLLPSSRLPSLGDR

In a further assay the target is T11, SYNJ2BP, P57105.
T11 sequence (P57105 8-110, limits assumed, looked up): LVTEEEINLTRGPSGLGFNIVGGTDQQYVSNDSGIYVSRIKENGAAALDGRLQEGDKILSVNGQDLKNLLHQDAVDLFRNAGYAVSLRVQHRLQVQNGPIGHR

The next assay addresses T12, TIAM2, Q8IVF5.
T12 sequence (Q8IVF5 885-986, limits assumed, looked up): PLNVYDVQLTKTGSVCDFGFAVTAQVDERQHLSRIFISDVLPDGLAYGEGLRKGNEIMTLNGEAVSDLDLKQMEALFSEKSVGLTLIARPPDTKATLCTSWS

The mark [1] stands for this setting: plain residues with an end cap or a label only (N-terminal biotin on a linker: (peg)3).
Setting [2] is: plain residues with an end cap or a label only (N-terminal biotin on a linker: ado-ado).

Chain of FRMPD2_3, Q68DX3 (Q68DX3 1073-1166): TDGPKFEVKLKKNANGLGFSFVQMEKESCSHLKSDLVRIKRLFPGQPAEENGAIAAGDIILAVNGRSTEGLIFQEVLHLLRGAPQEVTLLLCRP
Chain of GRIP2_5, Q9C0E4 (Q9C0E4 544-642): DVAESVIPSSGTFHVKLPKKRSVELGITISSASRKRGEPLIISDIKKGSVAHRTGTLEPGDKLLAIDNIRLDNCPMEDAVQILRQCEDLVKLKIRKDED
Chain of PDLIM1, O00151 (O00151 1-87): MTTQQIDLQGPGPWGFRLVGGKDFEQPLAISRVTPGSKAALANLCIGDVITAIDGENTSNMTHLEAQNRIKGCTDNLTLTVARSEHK
Chain of IL16_3, Q14005 (Q14005 1107-1207): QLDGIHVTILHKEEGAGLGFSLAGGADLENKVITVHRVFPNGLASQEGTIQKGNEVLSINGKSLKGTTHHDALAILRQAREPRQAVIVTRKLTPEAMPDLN
Chain of GRID2IP_2, A4D2P6 (A4D2P6 272-370): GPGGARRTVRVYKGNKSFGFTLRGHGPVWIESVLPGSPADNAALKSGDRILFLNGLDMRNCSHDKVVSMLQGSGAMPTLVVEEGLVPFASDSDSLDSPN
Chain of NOS1, P29475 (P29475 9-101): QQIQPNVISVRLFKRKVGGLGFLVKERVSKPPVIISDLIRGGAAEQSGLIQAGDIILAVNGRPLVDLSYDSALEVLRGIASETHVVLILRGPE
Chain of MAGI1_1, Q96QZ7 (Q96QZ7 1-106): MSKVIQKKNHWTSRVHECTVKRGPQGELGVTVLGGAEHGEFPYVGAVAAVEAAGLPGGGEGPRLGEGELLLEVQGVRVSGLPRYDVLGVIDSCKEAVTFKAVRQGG
Chain of PICK1, Q9NRD5 (Q9NRD5 17-115): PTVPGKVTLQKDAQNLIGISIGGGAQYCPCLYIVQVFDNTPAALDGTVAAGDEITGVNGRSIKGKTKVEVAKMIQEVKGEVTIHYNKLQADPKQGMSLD
Chain of GRIP2_4, Q9C0E4 (Q9C0E4 446-548): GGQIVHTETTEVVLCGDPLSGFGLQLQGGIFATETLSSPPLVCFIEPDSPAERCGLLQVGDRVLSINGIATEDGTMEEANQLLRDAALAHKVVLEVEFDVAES
Chain of Inadl_8, Q8NI35 (Q8NI35 1425-1530): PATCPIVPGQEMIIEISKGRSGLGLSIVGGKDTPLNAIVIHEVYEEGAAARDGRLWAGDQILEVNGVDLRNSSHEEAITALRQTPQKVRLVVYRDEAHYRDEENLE
Chain of DLG4_1, P78352 (P78352 62-152): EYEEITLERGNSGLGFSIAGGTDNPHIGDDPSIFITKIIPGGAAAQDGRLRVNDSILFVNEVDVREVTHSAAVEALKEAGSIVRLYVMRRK
Chain of HTRA1, Q92743 (Q92743 360-477): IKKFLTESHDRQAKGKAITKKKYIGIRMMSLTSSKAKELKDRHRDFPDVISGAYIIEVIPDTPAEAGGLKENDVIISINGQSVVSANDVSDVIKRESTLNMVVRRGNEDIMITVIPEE

B1: SARS-CoV-E, P59637 (peptide)
chain: NLNSSEGVPDLLV
In the case of B1, the negative-log Kd (pKd) result is listed as “below the threshold” with AHNAK1, Q09666 (setting [1]); “below the threshold” with APBA1_1, Q02410 (setting [1]); “below the threshold” in the assay with APBA1_2, Q02410 (setting [1]); “below the threshold” in the assay with DLG3_1, Q92796 (setting [1]); “below the threshold” with DLG3_3, Q92796 (setting [1]); “below the threshold” with DLG4_1, P78352 (setting [1]). Besides, the negative logarithm of the Kd (pKd) result with FRMPD2_3, Q68DX3 (setting [1]) is listed as “below the threshold”; with GRID2IP_2, A4D2P6 (setting [1]), “below the threshold”; with GRIP1_3, Q9Y3R0 (setting [1]), “below the threshold”; in the assay with GRIP1_5, Q9Y3R0 (setting [1]) it was “below the threshold”; in the assay with GRIP2_4, Q9C0E4 (setting [1]), “below the threshold”; with GRIP2_5, Q9C0E4 (setting [1]), “below the threshold”. The pKd was 4.57 with HTRA1, Q92743 (setting [1]); “below the threshold” with IL16_3, Q14005 (setting [1]); 3.96 with Inadl_8, Q8NI35 (setting [1]); 4.24 with LNX2_2, Q8N448 (setting [1]); “below the threshold” with MAGI1_1, Q96QZ7 (setting [1]); “below the threshold” with MPP2, Q14168 (setting [1]). Further, the negative-log Kd (pKd) entry with NHERF3_1, Q5T2W1 (setting [1]) is given as “below the threshold”; in the assay with NOS1, P29475 (setting [1]) it was “below the threshold”; with PDLIM1, O00151 (setting [1]) it was “below the threshold”; with PICK1, Q9NRD5 (setting [1]), “below the threshold”; with RHPN1, Q8TCX5 (setting [1]) it was “below the threshold”; with SNX27, Q96L92 (setting [1]) it was “below the threshold”. In addition, the negative-log Kd (pKd) is 3.99 in the assay with SYNJ2BP, P57105 (setting [1]) and “below the threshold” in the assay with TIAM2, Q8IVF5 (setting [1]).

B2: SLC34A1, Q06495;Q06495-1 (peptide)
chain: LPAHHNATRL
For B2, the negative-log Kd (pKd) result is “below the threshold” in the assay with AHNAK1, Q09666 (setting [2]); “below the threshold” with APBA1_1, Q02410 (setting [2]); 4 in the assay with APBA1_2, Q02410 (setting [2]); “below the threshold” in the assay with DLG3_1, Q92796 (setting [2]); “below the threshold” with DLG3_3, Q92796 (setting [2]); “below the threshold” with FRMPD2_3, Q68DX3 (setting [2]). For the same molecule, the pKd with GRID2IP_2, A4D2P6 (setting [2]) is 4.13; in the assay with GRIP1_3, Q9Y3R0 (setting [2]), “below the threshold”; with GRIP1_5, Q9Y3R0 (setting [2]), “below the threshold”; in the assay with GRIP2_4, Q9C0E4 (setting [2]), “below the threshold”; with GRIP2_5, Q9C0E4 (setting [2]), “below the threshold”; in the assay with IL16_3, Q14005 (setting [2]) it was “below the threshold”. The pKd entry in the assay with LNX2_2, Q8N448 (setting [2]) is “below the threshold”; with MAGI1_1, Q96QZ7 (setting [2]), “below the threshold”; with MPP2, Q14168 (setting [2]), “below the threshold”; with NHERF3_1, Q5T2W1 (setting [2]) it was 5.24; with NOS1, P29475 (setting [2]), 4.09; with PDLIM1, O00151 (setting [2]), “below the threshold”. Further, the negative logarithm of the Kd (pKd) with PICK1, Q9NRD5 (setting [2]) was 4.19; with SNX27, Q96L92 (setting [2]) it was 4.19; with SYNJ2BP, P57105 (setting [2]), “below the threshold”; with TIAM2, Q8IVF5 (setting [2]), “below the threshold”.

B3: TRIM29, Q14134;Q14134-2 (peptide)
chain: KSGKQTMLVV
For B3, the negative logarithm of the Kd (pKd) result with AHNAK1, Q09666 (setting [2]) is listed as “below the threshold”; in the assay with APBA1_1, Q02410 (setting [2]), “below the threshold”; in the assay with APBA1_2, Q02410 (setting [2]), “below the threshold”; with FRMPD2_3, Q68DX3 (setting [2]), “below the threshold”; in the assay with GRID2IP_2, A4D2P6 (setting [2]), “below the threshold”; with GRIP1_3, Q9Y3R0 (setting [2]), “below the threshold”. In addition, the pKd result with GRIP1_5, Q9Y3R0 (setting [2]) was “below the threshold”; with GRIP2_4, Q9C0E4 (setting [2]), “below the threshold”; with HTRA1, Q92743 (setting [2]) it was 4.42; in the assay with IL16_3, Q14005 (setting [2]), “below the threshold”; in the assay with LNX2_2, Q8N448 (setting [2]), 5.19; with MAGI1_1, Q96QZ7 (setting [2]), “below the threshold”. Moreover, the pKd result in the assay with MPP2, Q14168 (setting [2]) was “below the threshold”; with NHERF3_1, Q5T2W1 (setting [2]), “below the threshold”; with NOS1, P29475 (setting [2]) it was “below the threshold”; with PDLIM1, O00151 (setting [2]) it was “below the threshold”; in the assay with PICK1, Q9NRD5 (setting [2]), “below the threshold”; in the assay with RHPN1, Q8TCX5 (setting [2]) it was “below the threshold”. The negative logarithm of the Kd (pKd) entry with SYNJ2BP, P57105 (setting [2]) is on record as “below the threshold”.

B4: ATP2A2, P16615;P16615-3 (peptide)
chain: YLEPVLSSEL
In the case of B4, the pKd result is on record as “below the threshold” with AHNAK1, Q09666 (setting [2]); “below the threshold” with APBA1_1, Q02410 (setting [2]); “below the threshold” in the assay with APBA1_2, Q02410 (setting [2]); “below the threshold” in the assay with DLG3_1, Q92796 (setting [2]); “below the threshold” in the assay with DLG3_3, Q92796 (setting [2]); “below the threshold” with DLG4_1, P78352 (setting [2]). Further, the pKd entry with FRMPD2_3, Q68DX3 (setting [2]) is “below the threshold”; in the assay with GRID2IP_2, A4D2P6 (setting [2]) it was 4.22; with GRIP1_3, Q9Y3R0 (setting [2]), “below the threshold”; in the assay with GRIP1_5, Q9Y3R0 (setting [2]), “below the threshold”; in the assay with GRIP2_4, Q9C0E4 (setting [2]), “below the threshold”; with GRIP2_5, Q9C0E4 (setting [2]) it was “below the threshold”. Moreover, the pKd result with IL16_3, Q14005 (setting [2]) was “below the threshold”; with Inadl_8, Q8NI35 (setting [2]) it was “below the threshold”; with LNX2_2, Q8N448 (setting [2]), “below the threshold”; in the assay with MAGI1_1, Q96QZ7 (setting [2]) it was “below the threshold”; with MPP2, Q14168 (setting [2]) it was “below the threshold”; with NHERF3_1, Q5T2W1 (setting [2]), 5.47. Besides, the negative logarithm of the Kd (pKd) entry is “below the threshold” with NOS1, P29475 (setting [2]); “below the threshold” with PICK1, Q9NRD5 (setting [2]); 4.24 with RHPN1, Q8TCX5 (setting [2]); 4.12 with SNX27, Q96L92 (setting [2]); 4.24 with SYNJ2BP, P57105 (setting [2]); 3.98 in the assay with TIAM2, Q8IVF5 (setting [2]).

Broadly, the pKd is the negative decadic logarithm of the Kd, by convention in mol/L.
